Assay results taken from US10920201B2, “Rice EPSPS mutant, encoding gene and use thereof” (GEVOTO LLC, priority 2016, dated 2021).

What was measured:
soybean plants = experiment: Glyphosate spray test on soybean plants transformed with OsEM gene; assay type: in vivo
Source text: In the present example, wild-type soybean plants were taken as controls, the positive soybean plants transformed with OsEM gene obtained in Example 4 were taken as experiment group, to verify glyphosate resistance of OsEM gene in plants. An experiment method is as follows:
1 The OsEM transformed positive soybean plants 10-20 cm tall and 3 wild-type soybean plants with a similar size were numbered and then randomly arranged in an experiment area (preventing leaves from overlapping).
2 The area with the plants was measured, and glyphosate was sprayed at a dosage of 1060 g/hectare (0.106 g/m^2).
3 Commercially available Roundup® 41% ammonium glyphosate was used. Amount was calculated according to the experiment area and dosage of 0.106 g/m^2, then diluted 20 times with water, and uniformly sprayed on the plants in the experiment area.
4 After leaf surfaces were dry, the plants in the experiment group and the control group were moved into a greenhouse.
5 Growth states of the plants were evaluated and recorded.
Afterwards, plants grew well were transplanted to larger pots to grow, and the glyphosate (having a concentration of […]) was sprayed for a second time on a 21st day. After 2 weeks, the growth states of the plants in each group were captured and recorded.

[1] = test system: EDCE (E. coli DH5a with EPSPS gene and C-P Lyase gene being knocked out); experiment: Glyphosate resistance of transformed E. coli in liquid screening culture media (growth saturation index); assay type: cell-based; design: key to Growth Saturation Index: saturation index=0, no growth; saturation index=1, little growth; saturation index=2, half-saturated growth; saturation index=3, flourishing growth, but still having room to grow; saturation index=4, rapid growth, the bacteria having reached a highest (saturated) concentration in the culture media or the growth having reached the limit
Source text: 1.6 A double knockout E. coli was transformed (E. Coli DH5a with EPSPS gene and C-P Lyase gene being knocked out, named as EDCE, wherein for a preparation method thereof, reference can be made to a Chinese invention patent with the filing number CN2016103256926, entitled “Method for Screening Glyphosate-resistant Gene, EPSPS Mutant Gene, Defect Strain and Application Thereof”).
In the above, the screening culture media were culture media obtained by adding antibiotic, Spec (Spectinomycin), Gen (Gentamycin), Amp (Ampicillin) of certain concentrations and glyphosate of different concentrations, with M9 as a basic medium. Basic components of the M9 culture medium were as follows: Na2HPO4 13˜14 g/L, KH2PO4 5.7˜6.3 g/L, NaCl 0.9˜1.1 g/L, NH4Cl 1.8˜2.2 g/L, glucose 37˜43 g/L, MgSO4˜7H2O 48˜52 g/L, and CaCl2) 21˜23 g/L.
In the present example, EDCE transformed by the wild-type rice EPSPS gene (named as OsE gene, SEQ ID NO. 3) was taken as a control group, and the monoclonal resistant bacterium containing the OsEM gene (SEQ ID NO. 2) obtained in step 3.1 of Example 1 was taken as an experiment group, to detect the glyphosate resistance of the OsEM gene in bacteria.
The control group and the experiment group were respectively inoculated into culture media (screening culture media) containing glyphosate concentrations of 0 mM, 5 mM, 10 mM, 20 mM, 50 mM, 75 mM, and 100 mM, to observe growth states of bacterial colony in each group, denoted by growth saturation index (saturation index=0, no growth; saturation index=1, little growth; saturation index=2, half-saturated growth; saturation index=3, flourishing growth, but still having room to grow; saturation index=4, rapid growth, the bacteria having reached a highest (saturated) concentration in the culture media or the growth having reached the limit).

[2] = test system: EPSPS and C-P Lyase deficient E. coli; experiment: Growth of transformed E. coli on solid culture media containing glyphosate (FIG. 4); assay type: cell-based; conditions: solid culture medium
Procedure: Besides, the glyphosate-resistant CP4-EPSPS gene mostly widely used currently in genetically modified crops in agriculture was further used in the present example as positive control, and E. coli respectively transformed by OsE gene (negative control group), OsEM gene (experiment group) and CP4-EPSPS gene (positive control group) were inoculated onto solid culture media respectively containing glyphosate of concentration of 0 mM, 1 mM, 50 mM, 100 mM, to observe growth states of bacterial colony in each group.

[3] = 7th day after first glyphosate spray, 1060 g/hectare (0.106 g/m^2)

B1: OsEM: Rice EPSPS mutant gene (SEQ ID NO. 2) encoding 5-enolpyruvylshikimate-3-phosphate synthase mutant (SEQ ID NO. 1), 8 amino acid mutations (protein)
chain: MASNAAAAAAKAEEIVLQPIREISGAVQLPGSKSLSNRILLLSALSEGTTVVDNLLNSEDVHYMLEALKGLGLSVEADKVAKRAVVVGCGGKFPVEKDAKEEVQLFLGNAATAMRSLTAAVTAAGGNATYVLDGVPRMRERPIGDLVVGLKRLGADVDCFLGTECPPVRVKGIGGLPGGKVKLSGSISSQYLSALLMAAPLALGDVEIEIIDRLISIPYVEMTLRLMERFGVKAEHSDSWDRFYIKGGQQYESPGNAYVEGDASSASYFLAGAAITGGTVTVQGCGTTSLQGDVKFAEVLEMMGAKVTWTDTSVTVTGPPREPYGKKHLKAVDVNMNKMPDAAMTLAVVALFADGPTAIRDVASWRVKETERMVAIRTELTKLGASVEEGPDYCIITPPEKLNITAIDTYDDHRMAMAFSLAACADVPVTIRDPGCTRKTFPNYFDVLSTFVRN
Soybean plants; 1.06 g/m^2 glyphosate sprayed on 21st day, recorded after 2 weeks
  growth state of plants after second glyphosate spray (FIG. 7): could grow continuously
Soybean plants; [3]
  number of plants with Growth State + (low glyphosate resistance): 3
  number of plants with Growth State ++ (medium glyphosate resistance): 1
  number of plants with Growth State +++ (high glyphosate resistance): 4
  number of plants with Growth State − (no glyphosate resistance): 2
Soybean plants; soybean plants transformed by the gene
  glyphosate concentration to which resistance is endowed: 1.06 g/m^2
[1]; 0 mM glyphosate in culture medium
  Growth Saturation Index: 4
[1]; 5 mM glyphosate in culture medium
  Growth Saturation Index: 4
[1]; 10 mM glyphosate in culture medium
  Growth Saturation Index: 4
[1]; 20 mM glyphosate in culture medium
  Growth Saturation Index: 4
[1]; 50 mM glyphosate in culture medium
  Growth Saturation Index: 4
[1]; 75 mM glyphosate in culture medium
  Growth Saturation Index: 4
[1]; 100 mM glyphosate in culture medium
  Growth Saturation Index: 4
[1]; E. coli transformed by the gene
  glyphosate concentration to which resistance is endowed: 100 mM
[2]; 0 mM glyphosate
  growth state of bacterial colony: could grow normally
[2]; 1 mM glyphosate
  growth state of bacterial colony: could grow normally
[2]; 50 mM glyphosate
  growth state of bacterial colony: could grow normally
[2]; 100 mM glyphosate
  growth state of bacterial colony: could grow normally
